Key:
[1] = target: PrgU-His (PrgU with C-terminal His tag) (Enterococcus faecalis (plasmid pCF10)); test: SEC-MALS; 200 ul PrgU-His at 1 mg/ml on Superdex 200 10/300 GL Increase, 20 mM potassium phosphate pH 7.0, 150 mM NaCl; self-association, dimer
[2] = target: PrgU-His (PrgU with C-terminal His tag) (Enterococcus faecalis (plasmid pCF10)); test: GEMMA (gas-phase electrophoretic mobility macromolecule analysis); main SEC peak of PrgU-His diluted to 0.01 mg/ml in 20 mM ammonium acetate, pH 7.8; self-association, dimer and monomer
[3] = target: PrgU-His (Enterococcus faecalis plasmid pCF10, UniProt Q5G3Q2 1-118); test: MST; MST: 20 mM KPi pH 7.0, 150 mM NaCl, 0.05% Tween 20, 0.1 U/ul RNase inhibitor, ~25 C; EMSA: 20 min at ~25 C, 1% agarose run at 4 C, buffer as previously described (not given); settings: protein: recombinant, tags: C-terminal 10xHis with 3C protease site

## PrgU-His (PrgU with C-terminal His tag) (natural protein)
[1]
  stoichiometry N: 2
[2]
  stoichiometry N: 2

B1: IRS2 RNA (structured_RNA)
RNA: ACUCGUAAGAGCCGUGCAAACAACGUGUUGCAUGGCUCUUUUUCUAC
[3]; hairpin
  binding result: no binding

B2: IRS2 ssDNA (ssDNA)
DNA: ACTCGTAAGAGCCGTGCAAACAACGTGTTGCATGGCTCTTTTTCTAC
[3]
  binding result: no binding

B3: IRS2 dsDNA (dsDNA)
DNA 1: B2 DNA
DNA 2: GTAGAAAAAGAGCCATGCAACACGTTGTTTGCACGGCTCTTACGAGT
[3]; blunt
  binding result: no binding

B4: IRS1 RNA (structured_RNA)
RNA: GGAGCAGCGGGGAAUGUAUACAGUUCAUGUAUAUGUUCCCCGCUUUUUUUG
[3]; hairpin
  binding result: no binding

B5: IRS1 ssDNA (ssDNA)
DNA: GGAGCAGCGGGGAATGTATACAGTTCATGTATATGTTCCCCGCTTTTTTTG
[3]
  binding result: no binding

B6: IRS1 dsDNA (dsDNA)
DNA 1: B5 DNA
DNA 2: CAAAAAAAGCGGGGAACATATACATGAACTGTATACATTCCCCGCTGCTCC
[3]; blunt
  binding result: no binding
